Measured values published in a protein production outcome set (Wang et al. 2014).
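Note: failed if final PepcDB status was selected cloned or expressed and not failed if soluble or beyond.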

Assay: label from the status in PepcDB records
With “MGQKAKAQAPTTHPRPHTLSSQVAPALPRRPRHAAPESLRQARGEVMKAHLITYGCQMNEYDTHLVQSQLVSFGADIVESPDEADFVLVNTCAVRGKPVDKVRSLLGDLRKQKAQRSLVVGMMGCLAQLEEGQQIARKFEVDVLLGPGSLLDIGAALESNERFWGLQFKDELHDHIPPPPSGKLQAHLTIMRGCDHHCTYCIVPTTRGPQVSRHPDDILRELDMQLAAGVREVTLLGQNVNAYGVDQGAKLKGYPSFADLLRMVGASGIERVKFTTSHPMNFTEDVAAAIGETPAICEFVHLPVQSGSDRVLRRMAREYNREKYLTHIAQIKKHIPDVVLATDIIVGFPGETEEDFQDTLSLYDEVGYDSAYMFIYSPRPGTPSYKHFQDLPRELKTERLQRLIARQKDWSARKNAQKVGTVQQVLLRGDAHDAGFLEGHTRGNHPTVVPKAIGADGAGVYQVRIDHATPHMMYGHILGPDGQPLPEQPRFNPEAAAVGGALPML” the protein production was “failed”.
For “MGRAHVSTHELVAGRYRLFEVVQRETNRVCWSGEDATTGRPCLVTRIELPEGRAGEAARRAPGRVIRTGETMASLCPGRIAPVLDAVVADGMLWTVTEWVAGVPLGDLLDRRGAFGCARAARVGLELLAVLEAAHTHGVTHGELSPGQVFVREEGSVLVTGFGLAGATLAPRLTAPAYASPEQARDERIGPAADLWTLGAILYTMVEGRPPFRDRGRPEATLKGVDRLPLRTPVRAGPLAQAVTGLLRKNSRERPTRPVVRAALARALAEDPGTAVTEVTTGPGVRGGYAAARTAGRDRSRRTVAAGTALAVVTVAVAVLADLAVTDGLPGRGDGAAAGARQRPSASAAPPTGSAPAAASPGSPSSPAGRPSASASPSKPGVPAPAGFRRYDAPEGFSVALPEGWRRLDTASAPGGAYRVVFGASGDPRTLAVTYSRRAGADPVVVWRDDVEPGLARSDGYRRIGEIRSTTYRGRAAADMEWLVRDDGTRLRTFGRGFLLGGGRSFSLRWTTPAGDWDDSANERALAAFLGTFRDGAA”, the protein production was “failed”.
In the case of “MGRAMGDSFTFIFNPAADKGRAADKTALIERSLAHFEVASLETTRFAGHAAEIARAAAGEGSTLIACGGDGTLNEVVNAVAGQPVKVGVLPVGSANDFLKTFNPSAKEHEVRIRGFAGATSRKVDLGKV”, the protein production is reported as “failed”.
For “MGREFLDLFEQWAESYDQSVEGYDEQYRDVFAGYDRILSTVADKAGQVVLEFGIGTGNLTKKLLERGKTVYGIEPSAPMRKKAAEKLGERAVIMDGDFLQFPLPPEPIDTIASTYAFHHLTDAEKDEAIAKYSQLLHSGGKIVFADTAFRDKEAFRQTVEAARARGFHDLADDLEREYYTTLDVLASLFANHGFSVSFAQQNAFVWVMEAVKQTTLEHHHHHH”, the protein production was “not failed”.
With “MGRKNSPSERERELQNLIAQYEAVKAKNESLYLDGDQLADIADLYASERKFKEAQEVITYGLGLHPGHTDLMVEQAYLFLDLNQPQKAKEVAELITDTYSSNVKLLLAELLLNEGKLDAADQMLDSIEEEEKNDLGILVDIVYLYTDLGYPEKGVQWLKRGAEMYKDDEDFLAATADCYGAAGAEYIEQAIVVFNKLIDKNPYNPAYWVGLAKCQFATKDFDKAIESCDFAIAADEEFGEAHIIKAHSLFHLENIEGAIVEYRKALKYKTLSPEFTYMFIGLAYTQQENWAEANESYSMALRAIEENGNGSSPLLSDIYSNKALCASRQGDSEEAHRLCRLAKELAPQDAEPYLLEGRIYMEEDNFDLARAEWALALRYAPEADTWMEIGNYSLEFRMLENARFCFEQVLEEDPEYPKICEQLAAVCLVLQDHEGFKKYNAMSGDSINLDSLRDTILEMGVDGEQMLRELDDFLKDEK” the protein production was “failed”.
With “MGRLSGKTILVTGAASGIGRAALDLFAREGASLVAVDREERLLAEAVAALEAEAIAVVADVSDPKAVEAVFAEALEEFGRLHGVAHFAGVAHSALSWNLPLEAWEKVLRVNLTGSFLVARKAGEVLEEGGSLVLTGSVAGLGAFGLAHYAAGKLGVVGLARTLALELARKGVRVNVLLPGLIQTPMTAGLPPWAWEQEVGASPLGRAGRPEEVAQAALFLLSEESAYITGQALYVDGGRSIVGPPGLPPGFGPKGGERHAHVL” the protein production was “not failed”.
In the case of “MGRNDPLAAYNAKRDFARTAEPAGKRKSSATGNLFIVQKHDATRLHWDFRMEVDGVLKSWAVTRGPSPDPDDKRLAVQTEDHPLEYARFEGIIPEGEYGGGTVMLWDKGTWEPVEGKSAKDLEKGHLHFRLEGERMKGEWLLVRLKRRGNEKRDNWLLRKLDDAYAGQGDQLVERGLTSVLTGRTMAEIASDKAGSHSLKGKRGKAFASVMEEAGTHNRKVGKARGKAPSRARRNAPLPAFQPVQLATLVDTVPDGRQWLYEIKFDGYRALVAVRGTEVRVFTRSGLDWTEKFAPLARHLAGLKLPSCLIDGEIVAADADGNPDFSRLQAVLKRGHGEQGEGDALSFHAFDLLELEGEDLKPLPNVERKQKLAALLAGVSPPIHVADHIIGGGEKLLGALCGAGQEGIICKRADAAYAGKRTQNWLKVKCVARQEFIVVGFTRSSARRRPFASLLLAQREGKALVYKGKVGTGFDEDLLQDLATRFEALKVDEGPLDVPITEARGVTWLKPELVAEIAFAEFTAEGRVRHASFVGLREDKKAADVVPERPAPLVVQPEIVPISNRERVIFPESGQTKGDLADYYAAMAPAMLPFIANRPVSLVRCPQGRARHCFFQKHDSGSFGEHVHHVPIREKDGNEEEYLFVSDAAGILSCVQMGTIEFHGWCSLASDVEAPERMVIDLDPDEGLDFNDVKRAARDIRDRLSDLGLVSFAMLSGGKGVHVVVPLRPDHTWEAHASFAERFARALALAEPDRYVATMSKARRKGRIFIDWLRNRRGSTAVMPYSARARANAPVAVPIAWEELDDFANAHPFCIGDTAGLLKRSEGKSLRGWGMAQQSLPDV”, the protein production is reported as “failed”.
With “MGRTVVVLGGGISGLAASYHLSRAPCPPKVVLVESSERLGGWIRSVRGPNGAIFELGPRGIRPAGALGARTLLLVSELGLDSEVLPVRGDHPAAQNRFLYVGGALHALPTGLRGLLRPSPPFSKPLFWAGLRELTKPRGKEPDETVHSFAQRRLGPEVASLAMDSLCRGVFAGNSRELSIRSCFPSLFQAEQTHRSILLGLLLGAGRTPQPDSALIRQALAERWSQWSLRGGLEMLPQALETHLTSRGVSVLRGQPVCGLSLQAEGRWKVSLRDSSLEADHVISAIPASVLSELLPAEAAPLARALSAITAVSVAVVNLQYQGAHLPVQGFGHLVPSSEDPGVLGIVYDSVAFPEQDGSPPGLRVTVMLGGSWLQTLEASGCVLSQELFQQRAQEAAATQLGLKEMPSHCLVHLHKNCIPQYTLGHWQKLESARQFLTAHRLPLTLAGASYEGVAVNDCIESGRQAAVSVLGTEPNS” the protein production was “failed”.
With “MGSCMKWDYGEMEDFSVSASGLFITNEGNFQYSNATLSYYDPATCEVENEVFYRANGFKLGDVAQSMVIRDGIGWIVVNNSHVIFAIDINTFKEVGRITGFTSPRYIHFLSDEKAYVTQIWDYRIFIINPKTYEITGYIECPDMDMESGSTEQMVQYGKYVYVNCWSYQNRILKIDTETDKVVDELTIGIQPTSLVMDKYNKMWTITDGGYEGSPYGYEAPSLYRIDAETFTVEKQFKFKLGDWPSEVQLNGTRDTLYWINNDIWRMPVEADRVPVRPFLEFRDTKYYGLTVNPNNGEVYVADAIDYQQQGIVYRYSPQGKLIDEFYVGIIPGAFCWKLEHHHHHH” the protein production was “failed”.
For “MGSDVHVWKTWFITSSDRGFTWSTPAPLVNDDILPRGPVKNKLLLASNGAWIAPGSIESPERWRAFVDRSSDEGKHWSISFVPLEPDNAISGTNVALWDGIKKGRLWECCLENLLRWDGVIQPTLWESSPGHIHMLLRSTRGAIFRSDSIDYGATWSVARATSLPNNNSGIDLVSMQDGTLILALNPVNGNWGKRYPLSLIASQDNGESWLPLLDLESDHGEYSYPAIISEGGIVHITYTWNRKLEHHHHHH”, the protein production was “not failed”.
For “MGSEDHGAQNPSCKIMTFRPTMEEFKDFNKYVAYIESQGAHRAGLAKIIPPKEWKPRQTYDDIDDVVIPAPIQQVVTGQSGLFTQYNIQKKAMTVGEYRRLANSEKYCTPRHQDFDDLERKYWKNLTFVSPIYGADISGSLYDDDVAQWNIGSLRTILDMVERECGTIIEGVNTPYLYFGMWKTTFAWHTEDMDLYSINYLHFGEPKSWYAIPPEHGKRLERLAIGFFPGSSQGCDAFLRHKMTLISPIILKKYGIPFSRITQEAGEFMITFPYGYHAGFNHGFNCAESTNFATLRWIDYGKVATQCTCRKDMVKISMDVFVRILQPERYELWKQGKDLTVLDHTRPTALTSPELSSWSASRASLKAKLLRRSHRKRSQPKKPKPEDPKFPGEGTAGAALLEEAGGSVKEEAGPEVDPEEEEEEPQPLPHGREAEGAEEDGRGKLRPTKAKSERKKKSFGLLPPQLPPPPAHFPSEEALWLPSPLEPPVLGPGPAAMEESPLPAPLNVVPPEVPSEELEAKPRPIIPMLYVVPRPGKAAFNQEHVSCQQAFEHFAQKGPTWKEPVSPMELTGPEDGAASSGAGRMETKARAGEGQAPSTFSKLKMEIKKSRRHPLGRPPTRSPLSVVKQEASSDEEASPFSGEEDVSDPDALRPLLSLQWKNRAASFQAERKFNAAAARTEPYCAICTLFYPYCQALQTEKEAPIASLGEGCPATLPSKSRQKTRPLIPEMCFTSGGENTEPLPANSYIGDDGTSPLIACGKCCLQVHASCYGIRPELVNEGWTCSRCAAHAWTAECCLCNLRGGALQMTTDRRWIHVICAIAVPEARFLNVIERHPVDISAIPEQRWKLKCVYCRKRMKKVSGACIQCSYEHCSTSFHVTCAHAAGVLMEPDDWPYVVSITCLKHKSGGHAVQLLRAVSLGQVVITKNRNGLYYRCRVIGAASQTCYEVNFDDGSYSDNLYPESITSRDCVQLGPPSEGELVELRWTDGNLYKAKFISSVTSHIYQVEFEDGSQLTVKRGDIFTLEEELPKRVRSRLSLSTGAPQEPAFSGEEAKAAKRPRVGTPLATEDSGRSQDYVAFVESLLQVQGRPGAPF”, the protein production was “failed”.
In the case of “MGSELYLMFFAAITLLAILNPFGNLTQFLAMSDGLPLMLRKKLFRTILYTAFTIVLVFLLSGPLFMNYIFRVSLDDLRVSGGLVLIIMAIKNLLFSTKIATKDFSSYQDMDDKEILRQSLIPMAFPMLVGPGTLASVIVIAEDGGLDVALGGVMIAFIFMFILFHFAATIEKIVGKLILHVFSRIAQVFIVAMGFKMIIVGLKDIFNL”, the protein production is reported as “failed”.
With “MGSFHRRTFSYDKLPNEPIRLSVLKLDGSSFDVYVLTSATVGDLKVAIETAFSHVPKKGPSKISWSHVWGHFCLCFGGQKLITDTDCIGNYGMKDGDEVRFKNHVSGNAVLSKGYSRKSKQKNLERVLPKDGDEVLNRIEEIDDSWDDLERGGLVMYKDDDMETSSNESNRSCLSTVHGCCFAFGLKELLGFGNDRAYYSLRDTWRDD” the protein production was “failed”.
With “MGSGPTGLRGTGRQLLALERDVLVLSVAMFAFSLGFQMTSRYIPRYMSVLGAGAVAIGLFGAFGNLISALYPYPGGAVSDRIGSRTALTLFGLLSTAGFLIWLFADAFGTVVVPPVGTEREVFGREVVIGWLEPAVVPVGIFLGLVFAQAWKSFGLGATFAIVKQSVSPDQLATGFASTETFRRTAFLLGPLLAAGILAVFTFEVGFRIVLAVAAAFGLVATLAQHFLYDASEDTLGKSFAGVSAVVDDLRSMPSELRPLLVADTLVRFGNGMVYVFFIIVVTEFLEVGVSLPVVGRLSPDAYFGVLLAIEMLVALLIMLPVSRLSRRVGLKPVVAVGFAVYAIFPAVLIYAPDNAAVLALLFAVSGLRFAGLPAHKALIVGPAESGSGGRVTGSYYLVRNVVVIPSAAIGGAIYAVSPETAFLTATAIGLAGLVVFLAFGREFEAAVAG” the protein production was “failed”.
For “MGSMLLNGAKMKYGNLSLKCMVQNQKALNFYLSQGFEIVSQVDDELGGYYYMSFVAQT”, the protein production was “failed”.
In the case of “MGSQGGIVSIDAKIDASVMIGKDAVVFPDANIAERACIAEKVCIGNAVRIGKHAMIDHGASIGDRSNIGERSRIYQDSFIGENAVIAARACIGEKVYIGNFVSLAKDSIIDDGVNIGERSSIGERTRIRQGSFIRKGCVIRQRSVIAKRAYIDEGVYIGNVVRILEHHHHHH”, the protein production is reported as “failed”.
In the case of “MGSSHHHHHHSSGENLYFQGHMKTADLCDQFLDELQVCELPFQSYGGKRMFSGPIATVDVFEDNVLVREALETVPPGTVLVVDGKGSRRVALLGDRLAQIACERGLAGVIIHGCIRDSAEIGAMPIGVMAIGTCPVKSKKEGKGARDVVLEFGGVRWEPGAYVYADADGVVVANKDLLAKNG”, the protein production is reported as “not failed”.
